Publication PMC9482650, “Quantitative fragmentomics allow affinity mapping of interactomes” (Nature Communications, 2022)

What follows are binders tested against SCRIB_3, Q14160 (assay: holdup assay). Conditions: plain residues with an end cap or a label only (N-terminal biotin on a linker: ado-ado).
Design: key: below the threshold = too weak to quantify, mostly under pKd 3.1 to 4

Chain of SCRIB_3, Q14160 (Q14160 999-1103): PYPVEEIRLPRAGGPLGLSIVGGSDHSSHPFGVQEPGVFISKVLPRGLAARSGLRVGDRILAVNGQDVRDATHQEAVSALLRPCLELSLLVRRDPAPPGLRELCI

Binder	pKd
REEPDHSTEV [CCRL2, O00421]	4.35

These binders were tested against MAGI2_3, Q86UL8 (assay: holdup assay). Conditions: plain residues with an end cap or a label only (N-terminal biotin on a linker: ado-ado).
Design: key: below the threshold = too weak to quantify, mostly under pKd 3.1 to 4

Chain of MAGI2_3, Q86UL8 (Q86UL8 600-682): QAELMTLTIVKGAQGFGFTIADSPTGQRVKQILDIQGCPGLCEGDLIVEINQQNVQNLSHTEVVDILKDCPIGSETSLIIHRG

Binder	pKd
REEPDHSTEV [CCRL2, O00421]	below the threshold

These binders were tested against T1, SNTG1, Q9NSN8 (assay: holdup assay). Conditions: plain residues with an end cap or a label only (N-terminal biotin on a linker: ado-ado).
T1 sequence (Q9NSN8 52-150, limits assumed, looked up): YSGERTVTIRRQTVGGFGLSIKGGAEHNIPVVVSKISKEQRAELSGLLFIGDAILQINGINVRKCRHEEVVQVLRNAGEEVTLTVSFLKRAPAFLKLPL
Design: key: below the threshold = too weak to quantify, mostly under pKd 3.1 to 4

Binder	pKd
REEPDHSTEV [CCRL2, O00421]	4.36

These binders were tested against Inadl_1, Q8NI35 (assay: holdup assay). Conditions: plain residues with an end cap or a label only (N-terminal biotin on a linker: ado-ado).
Design: key: below the threshold = too weak to quantify, mostly under pKd 3.1 to 4

Chain of Inadl_1, Q8NI35 (Q8NI35 113-229): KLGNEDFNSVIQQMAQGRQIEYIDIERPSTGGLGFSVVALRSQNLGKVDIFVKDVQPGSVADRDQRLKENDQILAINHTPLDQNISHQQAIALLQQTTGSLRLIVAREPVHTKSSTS

Binder	pKd
REEPDHSTEV [CCRL2, O00421]	below the threshold

These binders were tested against Inadl_9, Q8NI35 (assay: holdup assay). Conditions: plain residues with an end cap or a label only (N-terminal biotin on a linker: ado-ado).
Design: key: below the threshold = too weak to quantify, mostly under pKd 3.1 to 4

Chain of Inadl_9, Q8NI35 (Q8NI35 1530-1615): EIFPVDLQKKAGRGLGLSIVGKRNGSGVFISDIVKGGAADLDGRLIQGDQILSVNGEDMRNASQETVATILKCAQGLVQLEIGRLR

Binder	pKd
REEPDHSTEV [CCRL2, O00421]	4

What follows are binders tested against GOPC, Q9HD26 (assay: holdup assay). Conditions: plain residues with an end cap or a label only (N-terminal biotin on a linker: ado-ado).
Design: key: below the threshold = too weak to quantify, mostly under pKd 3.1 to 4

Binder	pKd
REEPDHSTEV [CCRL2, O00421]	3.56

These binders were tested against Inadl_6, Q8NI35 (assay: holdup assay). Conditions: plain residues with an end cap or a label only (N-terminal biotin on a linker: ado-ado).
Design: key: below the threshold = too weak to quantify, mostly under pKd 3.1 to 4

Chain of Inadl_6, Q8NI35 (Q8NI35 1058-1167): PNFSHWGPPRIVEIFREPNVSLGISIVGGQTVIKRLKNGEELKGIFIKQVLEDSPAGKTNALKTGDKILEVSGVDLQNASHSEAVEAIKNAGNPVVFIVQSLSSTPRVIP

Binder	pKd
REEPDHSTEV [CCRL2, O00421]	below the threshold

The binders below were run against DLG4_3, P78352 (assay: holdup assay). Conditions: plain residues with an end cap or a label only (N-terminal biotin on a linker: ado-ado).
Design: key: below the threshold = too weak to quantify, mostly under pKd 3.1 to 4

Chain of DLG4_3, P78352 (P78352 306-403): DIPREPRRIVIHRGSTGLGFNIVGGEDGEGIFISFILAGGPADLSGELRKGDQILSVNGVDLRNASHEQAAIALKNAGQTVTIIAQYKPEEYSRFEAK

Binder	pKd
REEPDHSTEV [CCRL2, O00421]	below the threshold

What follows are binders tested against T2, TX1BP3, O14907 (assay: holdup assay). Conditions: plain residues with an end cap or a label only (N-terminal biotin on a linker: ado-ado).
T2 sequence (O14907 10-122, limits assumed, looked up): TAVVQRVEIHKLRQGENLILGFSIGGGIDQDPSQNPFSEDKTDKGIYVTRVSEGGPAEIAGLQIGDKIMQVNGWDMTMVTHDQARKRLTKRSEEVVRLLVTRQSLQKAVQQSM
Design: key: below the threshold = too weak to quantify, mostly under pKd 3.1 to 4

Binder	pKd
REEPDHSTEV [CCRL2, O00421]	3.49

What follows are binders tested against TJP2_1, Q9UDY2 (assay: holdup assay). Conditions: plain residues with an end cap or a label only (N-terminal biotin on a linker: ado-ado).
Design: key: below the threshold = too weak to quantify, mostly under pKd 3.1 to 4

Chain of TJP2_1, Q9UDY2 (Q9UDY2 24-128): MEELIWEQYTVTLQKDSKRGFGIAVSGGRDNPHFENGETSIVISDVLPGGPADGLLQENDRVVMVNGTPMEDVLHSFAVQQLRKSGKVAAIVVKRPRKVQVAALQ

Binder	pKd
REEPDHSTEV [CCRL2, O00421]	below the threshold

The binders below were run against HTRA2, O43464 (assay: holdup assay). Conditions: plain residues with an end cap or a label only (N-terminal biotin on a linker: ado-ado).
Design: key: below the threshold = too weak to quantify, mostly under pKd 3.1 to 4

Chain of HTRA2, O43464 (O43464 355-458): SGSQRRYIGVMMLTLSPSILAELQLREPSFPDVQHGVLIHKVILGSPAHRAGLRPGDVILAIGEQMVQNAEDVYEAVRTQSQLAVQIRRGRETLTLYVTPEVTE

Binder	pKd
REEPDHSTEV [CCRL2, O00421]	3.54

What follows are binders tested against T3, DLG3_1, Q92796 (assay: holdup assay). Conditions: plain residues with an end cap or a label only (N-terminal biotin on a linker: ado-ado).
T3 sequence (Q92796 125-227, limits assumed, looked up): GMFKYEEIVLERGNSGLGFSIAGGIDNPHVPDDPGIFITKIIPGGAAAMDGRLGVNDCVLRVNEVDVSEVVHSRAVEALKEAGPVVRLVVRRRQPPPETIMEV
Design: key: below the threshold = too weak to quantify, mostly under pKd 3.1 to 4

Binder	pKd
REEPDHSTEV [CCRL2, O00421]	4.26

Each binder was assayed against T4, PDZD2_2, O15018 (assay: holdup assay). Conditions: plain residues with an end cap or a label only (N-terminal biotin on a linker: ado-ado).
T4 sequence (O15018 329-429, limits assumed, looked up): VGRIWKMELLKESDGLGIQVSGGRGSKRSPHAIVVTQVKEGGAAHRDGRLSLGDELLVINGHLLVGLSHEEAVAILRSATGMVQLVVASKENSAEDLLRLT
Design: key: below the threshold = too weak to quantify, mostly under pKd 3.1 to 4

Binder	pKd
REEPDHSTEV [CCRL2, O00421]	5.32

These binders were tested against DLG4_2, P78352 (assay: holdup assay). Conditions: plain residues with an end cap or a label only (N-terminal biotin on a linker: ado-ado).
Design: key: below the threshold = too weak to quantify, mostly under pKd 3.1 to 4

Chain of DLG4_2, P78352 (P78352 155-259): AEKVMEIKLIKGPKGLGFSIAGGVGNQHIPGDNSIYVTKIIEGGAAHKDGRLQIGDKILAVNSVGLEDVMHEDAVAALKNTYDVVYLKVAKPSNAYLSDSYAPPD

Binder	pKd
REEPDHSTEV [CCRL2, O00421]	4.66

The binders below were run against NHERF4_2, Q86UT5 (assay: holdup assay). Conditions: plain residues with an end cap or a label only (N-terminal biotin on a linker: ado-ado).
Design: key: below the threshold = too weak to quantify, mostly under pKd 3.1 to 4

Chain of NHERF4_2, Q86UT5 (Q86UT5 220-308): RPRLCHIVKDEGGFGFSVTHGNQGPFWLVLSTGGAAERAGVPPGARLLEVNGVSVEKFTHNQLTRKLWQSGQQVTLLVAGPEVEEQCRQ

Binder	pKd
REEPDHSTEV [CCRL2, O00421]	below the threshold

These binders were tested against FRMPD2_2, Q68DX3 (assay: holdup assay). Conditions: plain residues with an end cap or a label only (N-terminal biotin on a linker: ado-ado).
Design: key: below the threshold = too weak to quantify, mostly under pKd 3.1 to 4

Chain of FRMPD2_2, Q68DX3 (Q68DX3 944-1038): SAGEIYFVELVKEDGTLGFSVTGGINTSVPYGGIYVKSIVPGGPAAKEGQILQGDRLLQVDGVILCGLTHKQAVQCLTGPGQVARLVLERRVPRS

Binder	pKd
REEPDHSTEV [CCRL2, O00421]	4.16

The binders below were run against T5, HTRA3, P83110 (assay: holdup assay). Conditions: plain residues with an end cap or a label only (N-terminal biotin on a linker: ado-ado).
T5 sequence (P83110 354-453, limits assumed, looked up): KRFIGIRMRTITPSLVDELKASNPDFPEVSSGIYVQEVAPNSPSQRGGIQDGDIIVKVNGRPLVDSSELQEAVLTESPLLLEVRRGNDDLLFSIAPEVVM
Design: key: below the threshold = too weak to quantify, mostly under pKd 3.1 to 4

Binder	pKd
REEPDHSTEV [CCRL2, O00421]	3.48

The binders below were run against PDLIM1, O00151 (assay: holdup assay). Conditions: plain residues with an end cap or a label only (N-terminal biotin on a linker: ado-ado).
Design: key: below the threshold = too weak to quantify, mostly under pKd 3.1 to 4

Chain of PDLIM1, O00151 (O00151 1-87): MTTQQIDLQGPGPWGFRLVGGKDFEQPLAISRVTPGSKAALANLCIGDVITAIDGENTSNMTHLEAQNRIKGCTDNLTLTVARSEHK

Binder	pKd
REEPDHSTEV [CCRL2, O00421]	3.53

The binders below were run against FRMPD2_1, Q68DX3 (assay: holdup assay). Conditions: plain residues with an end cap or a label only (N-terminal biotin on a linker: ado-ado).
Design: key: below the threshold = too weak to quantify, mostly under pKd 3.1 to 4

Chain of FRMPD2_1, Q68DX3 (Q68DX3 770-861): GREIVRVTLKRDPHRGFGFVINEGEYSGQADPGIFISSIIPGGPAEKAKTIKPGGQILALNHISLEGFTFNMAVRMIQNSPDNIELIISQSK

Binder	pKd
REEPDHSTEV [CCRL2, O00421]	below the threshold

What follows are binders tested against T6, PCLO, Q9Y6V0 (assay: holdup assay). Conditions: plain residues with an end cap or a label only (N-terminal biotin on a linker: ado-ado).
T6 sequence (Q9Y6V0 4491-4600, limits assumed, looked up): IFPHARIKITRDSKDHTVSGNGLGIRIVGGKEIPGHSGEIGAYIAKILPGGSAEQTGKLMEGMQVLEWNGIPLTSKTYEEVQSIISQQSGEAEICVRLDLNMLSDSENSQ
Design: key: below the threshold = too weak to quantify, mostly under pKd 3.1 to 4

Binder	pKd
REEPDHSTEV [CCRL2, O00421]	below the threshold

These binders were tested against T7, TIAM2, Q8IVF5 (assay: holdup assay). Conditions: plain residues with an end cap or a label only (N-terminal biotin on a linker: ado-ado).
T7 sequence (Q8IVF5 885-986, limits assumed, looked up): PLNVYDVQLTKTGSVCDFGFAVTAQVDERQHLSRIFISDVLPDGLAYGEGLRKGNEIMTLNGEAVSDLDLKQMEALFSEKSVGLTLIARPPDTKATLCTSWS
Design: key: below the threshold = too weak to quantify, mostly under pKd 3.1 to 4

Binder	pKd
REEPDHSTEV [CCRL2, O00421]	below the threshold

Each binder was assayed against T8, RAPGEF6, Q8TEU7 (assay: holdup assay). Conditions: plain residues with an end cap or a label only (N-terminal biotin on a linker: ado-ado).
T8 sequence (Q8TEU7 525-625, limits assumed, looked up): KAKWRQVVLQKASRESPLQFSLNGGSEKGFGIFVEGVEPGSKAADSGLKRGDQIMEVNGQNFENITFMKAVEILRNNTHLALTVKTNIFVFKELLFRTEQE
Design: key: below the threshold = too weak to quantify, mostly under pKd 3.1 to 4

Binder	pKd
REEPDHSTEV [CCRL2, O00421]	below the threshold

Each binder was assayed against GRIP2_4, Q9C0E4 (assay: holdup assay). Conditions: plain residues with an end cap or a label only (N-terminal biotin on a linker: ado-ado).
Design: key: below the threshold = too weak to quantify, mostly under pKd 3.1 to 4

Chain of GRIP2_4, Q9C0E4 (Q9C0E4 446-548): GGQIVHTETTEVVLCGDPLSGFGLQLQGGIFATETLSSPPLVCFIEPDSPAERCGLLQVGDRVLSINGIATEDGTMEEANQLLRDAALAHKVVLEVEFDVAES

Binder	pKd
REEPDHSTEV [CCRL2, O00421]	below the threshold

Each binder was assayed against IL16_4, Q14005 (assay: holdup assay). Conditions: plain residues with an end cap or a label only (N-terminal biotin on a linker: ado-ado).
Design: key: below the threshold = too weak to quantify, mostly under pKd 3.1 to 4

Chain of IL16_4, Q14005 (Q14005 1229-1329): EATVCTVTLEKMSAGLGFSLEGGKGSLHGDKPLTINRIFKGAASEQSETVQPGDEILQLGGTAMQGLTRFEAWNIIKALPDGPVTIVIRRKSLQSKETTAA

Binder	pKd
REEPDHSTEV [CCRL2, O00421]	below the threshold

These binders were tested against TJP1_3, Q07157 (assay: holdup assay). Conditions: plain residues with an end cap or a label only (N-terminal biotin on a linker: ado-ado).
Design: key: below the threshold = too weak to quantify, mostly under pKd 3.1 to 4

Chain of TJP1_3, Q07157 (Q07157 416-512): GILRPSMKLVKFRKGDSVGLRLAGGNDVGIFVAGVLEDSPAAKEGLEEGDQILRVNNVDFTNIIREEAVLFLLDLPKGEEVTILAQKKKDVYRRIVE

Binder	pKd
REEPDHSTEV [CCRL2, O00421]	3.48

Each binder was assayed against T9, LIN7B, Q9HAP6 (assay: holdup assay). Conditions: plain residues with an end cap or a label only (N-terminal biotin on a linker: ado-ado).
T9 sequence (Q9HAP6 88-185, limits assumed, looked up): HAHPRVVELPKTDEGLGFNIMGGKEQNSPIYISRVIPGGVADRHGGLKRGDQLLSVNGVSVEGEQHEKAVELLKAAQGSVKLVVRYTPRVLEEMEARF
Design: key: below the threshold = too weak to quantify, mostly under pKd 3.1 to 4

Binder	pKd
REEPDHSTEV [CCRL2, O00421]	below the threshold

The binders below were run against LNX1_1, Q8TBB1 (assay: holdup assay). Conditions: plain residues with an end cap or a label only (N-terminal biotin on a linker: ado-ado).
Design: key: below the threshold = too weak to quantify, mostly under pKd 3.1 to 4

Chain of LNX1_1, Q8TBB1 (Q8TBB1 261-371): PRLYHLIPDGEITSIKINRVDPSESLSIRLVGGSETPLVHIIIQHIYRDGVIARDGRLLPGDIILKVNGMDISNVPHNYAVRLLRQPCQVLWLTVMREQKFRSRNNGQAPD

Binder	pKd
REEPDHSTEV [CCRL2, O00421]	4.09

Each binder was assayed against LAP2, Q96RT1 (assay: holdup assay). Conditions: plain residues with an end cap or a label only (N-terminal biotin on a linker: ado-ado).
Design: key: below the threshold = too weak to quantify, mostly under pKd 3.1 to 4

Chain of LAP2, Q96RT1 (Q96RT1 other isoform, or with tags, fused parts or gaps): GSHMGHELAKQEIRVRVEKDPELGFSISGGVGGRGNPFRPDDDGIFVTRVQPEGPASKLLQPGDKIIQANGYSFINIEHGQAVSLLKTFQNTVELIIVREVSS

Binder	pKd
REEPDHSTEV [CCRL2, O00421]	4.15
